This is an account of results in publication PMC12035558, “Structure of the Saccharolobus solfataricus GINS tetramer” (Acta Crystallographica Section F: Structural Biology …, 2025).

The series concerns the molecule itself. Nature of the series: crystal structure; co-expressed and co-purified SsoGINS tetramer, 11 mg/ml in 20 mM Tris pH 8.3, 100 mM NaCl; hanging drop, 0.18 M triammonium citrate, 20%(w/v) PEG 3350, 291 K; space group P6_(3), 2.3 Å.

B1: Saccharolobus solfataricus GINS51 (natural protein)
chain: MLDELVKKELSEEEITEIKLEEIIKYITLIKKSKTFVSSEIRKEELKFLSELAESLFELRLSKVLEGKVGKGFDEFIFDIFKILKQFYVDLLTGRYIIYNDKIYCIVQKPLIYNDHRVNEGDVLVLPMREALPLIIASYLTPYKIDIEEQL
notes: GINS51 of Saccharolobus solfataricus, gene amplified from genomic DNA (ATCC 35092D-5); Two copies stand in the (GINS23)2(GINS51)2 tetramer; A subdomain (alpha-helical) comes first, B subdomain (with beta-strands) second; also called SsoGINS51; Sso51
With B1, the binding result is “binds”.
